In the data set the target is PTEN (substrate in the in vitro ubiquitination reaction) (UniProt P60484).
PTEN (substrate in the in vitro ubiquitination reaction), sequence (P60484 whole entry): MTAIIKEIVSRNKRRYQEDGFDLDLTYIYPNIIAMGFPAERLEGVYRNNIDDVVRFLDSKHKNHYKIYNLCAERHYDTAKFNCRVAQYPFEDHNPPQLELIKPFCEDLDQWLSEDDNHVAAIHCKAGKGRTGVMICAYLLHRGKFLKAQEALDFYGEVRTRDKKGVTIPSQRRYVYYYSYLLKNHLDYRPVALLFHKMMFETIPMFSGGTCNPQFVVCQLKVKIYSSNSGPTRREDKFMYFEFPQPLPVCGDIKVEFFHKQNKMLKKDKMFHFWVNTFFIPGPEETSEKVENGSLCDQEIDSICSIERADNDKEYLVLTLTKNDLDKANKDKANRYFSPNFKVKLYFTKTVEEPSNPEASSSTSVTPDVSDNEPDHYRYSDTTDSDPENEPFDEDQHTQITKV

As for “WWP1 ligase (recombinant, Ubiquigent #63-0034-025)”, the “in vitro ubiquitination reaction, TMT LC-MS/MS of ubiquitin sites on PTEN” value was “Specific ubiquitin sites on PTEN demonstrate greater occupancy (e.g., K237 and K342) when K27-only ubiquitin is used in the reaction vs wild type ubiquitin”; the “in vitro ubiquitination reaction, western blot using an anti-ubiquitin antibody” value is “in the presence of K27 only ubiquitin, PTEN substrate ubiquitin is preferred. PTEN is readily ubiquitinated with non-chain forming ubiquitin”.

These data come from patent US20230227406.
